Laboratory results reported in patent US20250051437A1 (University of California, published 2025).

Legend:
[1] = target: T1, human cadherin-17 (CDH17), endogenously expressed on human cancer cell lines (LS513, SNU-C1, PaTu8988s, … (human, UniProt Q12864 23-832)); experiment: KinExA, cell-based, SNUC1 cells
T1 construct: also called LS513 (Colon, CDH17+); HPAF2

[2] = target: T2, recombinant CDH17 extracellular domain (ECD) with 6x His tag (human, UniProt Q12864 23-787); experiment: ELISA on recombinant CDH17 ECD-6xHis
T2 construct: also called Recombinant CDH17 ECD-6xhis tag

[3] = target: T1, human cadherin-17 (CDH17), endogenously …; experiment: flow cytometry (iQue) on LS513 cells, 1 µg Ab
[4] = target: T1, human cadherin-17 (CDH17), endogenously …; experiment: flow cytometry (iQue) on SNUC1 cells, 1 µg Ab
[5] = target: T3, human CDH17-mGFP fusion protein overexpressed on HEK293T cells (clone G11) (human, UniProt Q12864 23-832); experiment: KinExA, cell-based, HEK293T CDH17mGFP clone G11
T3 construct: also called HEK293T CDH17mGFP Clone G11; HEK293T Human CDH17mGFP G11; not shown: mGFP fluorescent protein fused to CDH17
Description: (§1) The cell-based antibody affinity (KD) of the anti-CDH17 antibodies was measured by KinExA 4000 (Sapidyne Instrument, Boise, Idaho). Briefly, HEK293T overexpressing CDH17-fluorescent protein fusion (i.e., human CDH17-mGFP, monkey CDH17-mGFP, mouse CDH17-mGFP or rat CDH17-mGFP) were detached with Versene and equilibrated with either 50 pM, 200 pM, 20 nM, or 50 nM antibody in 2% FBS/DMEM at 4° C. overnight. The cell concentration started at 5×10⁶ cells/mL or 1×10⁷ cells/mL and 2-fold serial dilutions were performed up to 10 points. The next day, the cells were centrifuged at 1500 rpm for 10 min and the supernatants were saved. […] In contrast, while the humanized anti-CDH17 antibody, 07-0653-h43, fails to bind mouse CDH17 protein, it binds rat CDH17 protein equally well as to human and monkey CDH17 protein such that its Kp is less than about 1 nM for human, monkey and rat CDH17 proteins with overlapping 95% confidence interval values.

[6] = target: T1, human cadherin-17 (CDH17), endogenously …; experiment: flow cytometry (iQue) on LS513 cells, 0.2 µg Ab
[7] = target: T1, human cadherin-17 (CDH17), endogenously …; experiment: flow cytometry (iQue) on SNUC1 cells, 0.2 µg Ab
[8] = target: T1, human cadherin-17 (CDH17), endogenously …; experiment: flow cytometry on LS513 cells (CDH17+), 20 µg/ml
[9] = target: T1, human cadherin-17 (CDH17), endogenously …; experiment: flow cytometry (iQue) on PATU8988S cells, 1 µg Ab
[10] = target: T1, human cadherin-17 (CDH17), endogenously …; experiment: flow cytometry (iQue) on PATU8988S cells, 0.2 µg Ab
[11] = target: T3, human CDH17-mGFP fusion protein …; experiment: flow cytometry on HEK293T human CDH17mGFP G11, 20 µg/ml
[12] = target: T4, rat CDH17 fused to moxGFP, overexpressed on HEK293T cells (rat, UniProt P55281 22-827); experiment: KinExA, cell-based, HEK293T rat CDH17mGFP mass population
T4 construct: whole, on cells; also called HEK293T Rat CDH17mGFP mass pop; rat CDH17-moxGFP
Description: as §1

[13] = target: T3, human CDH17-mGFP fusion protein …; experiment: KinExA, cell-based, HEK293T overexpressing human CDH17-mGFP (FIG. 16)
Description: as §1

[14] = target: T4, rat CDH17 fused to moxGFP, …; experiment: KinExA, cell-based, HEK293T overexpressing rat CDH17 fusion (FIG. 16)
Description: as §1

[15] = target: T4, rat CDH17 fused to moxGFP, …; experiment: flow cytometry on HEK293T rat CDH17mGFP mass population, 20 µg/ml
[16] = target: T3, human CDH17-mGFP fusion protein …; experiment: KinExA, cell-based, HEK293T human CDH17mGFP G11 (same value as r12)
Description: as §1

[17] = target: T5, mouse CDH17-mGFP fusion protein overexpressed on HEK293T cells (mouse, UniProt Q9R100 26-827); experiment: flow cytometry on HEK293T mouse CDH17mGFP mass population, 20 µg/ml
T5 construct: also called HEK293T Mouse CDH17mGFP mass; not shown: mGFP fluorescent protein

[18] = target: T3, human CDH17-mGFP fusion protein …; experiment: flow cytometry (iQue) on HEK293T CDH17 mGFP clone G11 (human), 1 µg Ab
[19] = target: T3, human CDH17-mGFP fusion protein …; experiment: flow cytometry (iQue) on HEK293T CDH17 mGFP clone G11 (human), 0.2 µg Ab

T4 sequence (P55281 22-827): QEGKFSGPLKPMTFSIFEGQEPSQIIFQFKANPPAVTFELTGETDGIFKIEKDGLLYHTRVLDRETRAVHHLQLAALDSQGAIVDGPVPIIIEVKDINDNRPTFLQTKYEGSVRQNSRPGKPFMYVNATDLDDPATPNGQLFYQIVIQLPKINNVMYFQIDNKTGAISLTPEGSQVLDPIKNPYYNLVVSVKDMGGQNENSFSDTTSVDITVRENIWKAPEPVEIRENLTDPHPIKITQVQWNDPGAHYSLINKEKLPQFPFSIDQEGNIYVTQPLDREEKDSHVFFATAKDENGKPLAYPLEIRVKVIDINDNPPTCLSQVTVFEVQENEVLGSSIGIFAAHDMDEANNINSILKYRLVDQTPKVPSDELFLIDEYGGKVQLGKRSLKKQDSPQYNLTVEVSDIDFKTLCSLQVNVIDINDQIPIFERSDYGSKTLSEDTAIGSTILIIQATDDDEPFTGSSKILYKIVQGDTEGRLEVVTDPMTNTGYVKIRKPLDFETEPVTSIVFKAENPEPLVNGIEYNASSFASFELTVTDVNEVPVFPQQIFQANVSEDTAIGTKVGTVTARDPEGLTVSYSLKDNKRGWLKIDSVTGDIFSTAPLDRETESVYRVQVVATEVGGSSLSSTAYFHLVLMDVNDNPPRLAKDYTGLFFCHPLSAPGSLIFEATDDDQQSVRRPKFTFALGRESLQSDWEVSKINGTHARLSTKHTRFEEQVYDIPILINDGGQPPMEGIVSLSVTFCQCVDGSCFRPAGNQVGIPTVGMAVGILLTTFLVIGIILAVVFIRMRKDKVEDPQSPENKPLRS
T5 sequence (Q9R100 26-827): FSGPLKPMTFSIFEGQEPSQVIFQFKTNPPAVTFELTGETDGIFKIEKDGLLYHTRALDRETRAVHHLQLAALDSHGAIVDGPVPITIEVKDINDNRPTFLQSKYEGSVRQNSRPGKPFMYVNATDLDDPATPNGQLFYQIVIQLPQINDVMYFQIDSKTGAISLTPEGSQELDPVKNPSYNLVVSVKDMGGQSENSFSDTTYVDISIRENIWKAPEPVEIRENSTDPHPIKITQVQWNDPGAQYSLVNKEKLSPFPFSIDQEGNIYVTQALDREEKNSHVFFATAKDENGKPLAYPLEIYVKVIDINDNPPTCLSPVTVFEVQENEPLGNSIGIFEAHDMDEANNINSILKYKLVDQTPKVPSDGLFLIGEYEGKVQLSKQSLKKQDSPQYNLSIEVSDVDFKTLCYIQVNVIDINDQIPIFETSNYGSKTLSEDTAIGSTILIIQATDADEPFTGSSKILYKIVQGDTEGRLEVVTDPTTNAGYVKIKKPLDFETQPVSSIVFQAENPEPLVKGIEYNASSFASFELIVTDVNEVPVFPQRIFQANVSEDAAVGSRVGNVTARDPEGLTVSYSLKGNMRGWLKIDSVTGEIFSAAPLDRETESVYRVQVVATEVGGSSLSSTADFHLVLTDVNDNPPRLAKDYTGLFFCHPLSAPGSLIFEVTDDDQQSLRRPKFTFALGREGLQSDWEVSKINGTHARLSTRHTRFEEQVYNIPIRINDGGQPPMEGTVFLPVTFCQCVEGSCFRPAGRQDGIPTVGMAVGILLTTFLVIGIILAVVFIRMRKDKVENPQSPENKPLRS

B1: humanized anti-CDH17 antibody 07-0653-h43 (antibody, human IgG1, V domains shown)
VH: QVQLVQSGAEVKKPGASVKVSCKASGYTFTDYYMNWVRQAPGQGLEWMGVIYPYSGGIGYAQKFQGRVTMTVDKSTSTAYMELSSLRSEDTAVYYCARGRGDYFGLFDFWGQGTTVTVSS
VL: DIQLTQSPSSLSASVGDRVTITCRATSSLSYIHWYQQKPGKAPKPLIYEISKLASGVPSRFSGSGSGTDYTLTISSLQPEDFATYYCQQWNYPFTFGQGTKLEIK
notes: also called CDH17-653-h43
[1]
  Kd: 206 pM
[2]
  EC50: 1130 pM
[3]
  Antibody Binding Activity by Flow iQue: 1.83e+06
[4]
  Antibody Binding Activity by Flow iQue: 61400
[5]
  Kd: 736 pM
[6]
  Antibody Binding Activity by Flow iQue: 1.79e+06
[7]
  Antibody Binding Activity by Flow iQue: 77200
[8]
  Antibody Binding Activity by Flow Cytometry: 24300
[9]
  Antibody Binding Activity by Flow iQue: 52200
[10]
  Antibody Binding Activity by Flow iQue: 48100
[11]
  Cross Reactivity by Flow: 51800
[12]
  Kd: 535 pM
[13]
  Kd: < 1000 pM
[14]
  Kd: < 1000 pM
[15]
  Cross Reactivity by Flow: 71800
[16]
  Kd: 736 pM
[17]
  Cross Reactivity by Flow: 2460
[18]
  Antibody Binding Activity by Flow iQue: 191000
[19]
  Antibody Binding Activity by Flow iQue: 51800
